This is an account of results in paper PMC7641761.

The target of series [1] is Ku70/Ku80 heterodimer FL (baculovirus) (human) (UniProt P12956+P13010). Kind of series: MST. To be noted: 1 mM DTT, 24 C, 40 nM FAM-RNA, EMSA: 25 mM Hepes-KOH pH 7.5, 50 mM NaCl, 1 mM EDTA, 10% glycerol, 0.1 uM BSA ….
Series [2] concerns the target Ku5D T305D;S306D;T307D;S314D;T316D (human) (UniProt P12956+P13010). Kind of series: MST. The conditions noted are these: MST: 50 mM Tris pH 8.0, 50 mM NaCl, 1 mM DTT, 24 C, 40 nM FAM-RNA, EMSA: 25 mM Hepes-KOH pH 7.5, 50 mM NaCl, 1 mM EDTA, 10% glycerol, 0.1 uM BSA …. A general note: A gel shift assay detects complexes by their altered migration in electrophoresis.
Setting [3] is: MST: 50 mM Tris pH 8.0, 50 mM NaCl.

Chain of Ku70/Ku80 heterodimer FL (baculovirus) (human) (P12956 whole entry, chain 1 of 2): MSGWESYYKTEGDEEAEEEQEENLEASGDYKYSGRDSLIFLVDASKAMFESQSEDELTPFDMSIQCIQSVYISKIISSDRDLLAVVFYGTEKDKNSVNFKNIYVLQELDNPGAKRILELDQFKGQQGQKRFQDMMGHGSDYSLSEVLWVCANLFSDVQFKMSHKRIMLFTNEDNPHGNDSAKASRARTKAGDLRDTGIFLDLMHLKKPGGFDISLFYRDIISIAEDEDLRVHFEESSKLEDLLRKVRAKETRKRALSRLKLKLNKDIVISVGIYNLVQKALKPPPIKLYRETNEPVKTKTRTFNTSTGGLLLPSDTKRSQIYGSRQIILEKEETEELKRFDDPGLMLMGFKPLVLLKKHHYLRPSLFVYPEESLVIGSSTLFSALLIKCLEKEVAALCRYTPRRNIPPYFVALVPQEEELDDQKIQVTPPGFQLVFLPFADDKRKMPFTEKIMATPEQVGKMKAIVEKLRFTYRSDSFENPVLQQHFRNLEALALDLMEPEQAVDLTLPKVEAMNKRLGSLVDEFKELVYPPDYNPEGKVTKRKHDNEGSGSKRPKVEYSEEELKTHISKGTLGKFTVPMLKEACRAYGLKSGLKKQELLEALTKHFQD
Chain of Ku70/Ku80 heterodimer FL (baculovirus) (human) (P13010 1-718, chain 2 of 2): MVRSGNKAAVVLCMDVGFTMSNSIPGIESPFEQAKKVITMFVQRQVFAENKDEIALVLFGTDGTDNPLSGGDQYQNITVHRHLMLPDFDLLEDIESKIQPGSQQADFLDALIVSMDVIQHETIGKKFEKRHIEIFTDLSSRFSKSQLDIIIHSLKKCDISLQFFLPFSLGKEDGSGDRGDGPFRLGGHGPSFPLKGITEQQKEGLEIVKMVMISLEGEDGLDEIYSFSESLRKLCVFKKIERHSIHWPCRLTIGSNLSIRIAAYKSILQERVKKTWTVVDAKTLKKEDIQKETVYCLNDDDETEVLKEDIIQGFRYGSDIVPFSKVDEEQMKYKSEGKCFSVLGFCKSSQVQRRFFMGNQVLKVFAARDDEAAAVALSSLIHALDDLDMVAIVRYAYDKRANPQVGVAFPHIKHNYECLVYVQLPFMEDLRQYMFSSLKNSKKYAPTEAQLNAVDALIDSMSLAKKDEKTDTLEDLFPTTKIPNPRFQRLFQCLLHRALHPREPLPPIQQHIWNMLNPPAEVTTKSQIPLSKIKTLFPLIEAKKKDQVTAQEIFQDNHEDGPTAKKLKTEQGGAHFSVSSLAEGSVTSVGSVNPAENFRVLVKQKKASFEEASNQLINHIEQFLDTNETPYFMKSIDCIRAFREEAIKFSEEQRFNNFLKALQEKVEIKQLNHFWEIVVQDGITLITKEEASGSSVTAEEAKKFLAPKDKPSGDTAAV
Chain of Ku5D T305D;S306D;T307D;S314D;T316D (human) (P12956 whole entry T305D/S306D/T307D/S314D/T316D, chain 1 of 2): as the sequence (P12956 whole entry, chain 1 of 2) above, with T305D, S306D, T307D, S314D, T316D counted along it
Chain of Ku5D T305D;S306D;T307D;S314D;T316D (human) (P13010 1-718, chain 2 of 2): as the sequence (P13010 1-718, chain 2 of 2) above

The term Kd denotes the constant that tells how readily two partners part at equilibrium. polyU yielded an equilibrium dissociation constant (Kd) in series [1] (setting [3]) of 1400 nM.

The substance LINP1 SL2 + SL3 registered a dissociation constant Kd in series [1] (setting [3]) of 700 nM.

As to polyC, in series [1] (setting [3]), the Kd turned out to be 1290 nM.

In series [1] (Hill 1.0, MST: 50 mM Tris pH 8.0, 50 mM NaCl), FL LINP1 gave a Kd of 740 nM. The substance also displayed a binding signal (fold better than WT) in series [2] of 2.

In the case of polyA, the Kd in series [1] (setting [3]) came to 4800 nM.
